Measurements reported in patent EP4803550A1 (Yantai Patronus Biotech Co., Ltd., dated 2026).

B1: RD012-2 (fHBP V3 domain 1-fHBP V1 domain 2-fHBP V1 domain 1T1-fHBP V2 domain 2-(GSG)2-4T-His) (other)
chain: SSGSGSGGGGVAADIGTGLADALTAPLDHKDKGLKSLTLEDSISQNGTLTLSAQGAEKTFKVGDKDNSLNTGKLKNDKISRFDFVQKIEVDGQTITLASGEFQIYKQDHSAVVALQIEKINNPDKIDSLINQRSFLVSGLGGEHTSFDKLPKDVMATYRGTAFGSDDAGGKLTYTIDFAAKQGHGKIEHLKSPELNVDLAVAYIKPDEKHHAVISGSVLYNQDEKGSYSLGIFGEKAQEVAGSAEVETANGIHHIGLAAKQGSGGGGVTADIGTGLADALTAPLDHKDKGLKSLTLEDSISQNGTLTLSAQGAEKTYGNGDSLNTGKLKNDKVSRFDFIRQIEVDGQLITLESGEFQVYKQSHSALTALQTEQEQDPEHSEKMVAKRRFRIGDIAGEHTAFNQLPDGKAEYHGKAFSSDDAGGKLTYTIDFAAKQGHGKIEHLKTPEQNVELAAAELKADEKSHAVILGDTRYGSEEKGTYHLALFGDRAQEIAGSATVKIGEKVHEIGIAGKQGSGGSGAHIVMVDAYKPTKHHHHHH
notes: Expressed in E. coli BL21(DE3), purified by His-trap and SEC; also called RD012-2 fusion protein; MenB antigen
B2: RD012-1 (fHBP V3 domain 1-fHBP V1 domain 2-(G)-fHBP V1 domain 1-fHBP V2 domain 2-(GSG)2-4T-His) (other)
chain: SSGSGSGGGGVAADIGTGLADALTAPLDHKDKGLKSLTLEDSISQNGTLTLSAQGAEKTFKVGDKDNSLNTGKLKNDKISRFDFVQKIEVDGQTITLASGEFQIYKQDHSAVVALQIEKINNPDKIDSLINQRSFLVSGLGGEHTSFDKLPKDVMATYRGTAFGSDDAGGKLTYTIDFAAKQGHGKIEHLKSPELNVDLAVAYIKPDEKHHAVISGSVLYNQDEKGSYSLGIFGEKAQEVAGSAEVETANGIHHIGLAAKQGSSGGGGSGGGGVTADIGTGLADALTAPLDHKDKGLKSLTLEDSISQNGTLTLSAQGAEKTYGNGDSLNTGKLKNDKVSRFDFIRQIEVDGQLITLESGEFQVYKQSHSALTALQTEQEQDPEHSEKMVAKRRFRIGDIAGEHTAFNQLPDGKAEYHGKAFSSDDAGGKLTYTIDFAAKQGHGKIEHLKTPEQNVELAAAELKADEKSHAVILGDTRYGSEEKGTYHLALFGDRAQEIAGSATVKIGEKVHEIGIAGKQGSGGSGAHIVMVDAYKPTKHHHHHH
notes: Expressed in E. coli BL21(DE3), purified by His-trap and SEC; also called RD012-1 fusion protein; MenB antigen

Molecular target: T1, NPM-4C (binding peptide 2-NPM fusion protein)
T1 construct: Self-assembling nanoparticle protein expressed in E. coli; also called particle protein component; VLP carrier NPM-4C
Assay: covalent binding reaction (4T/4C) with NPM-4C at 22 °C for 24 h, SEC purification, SDS-PAGE

Binder | binding result
B1 | binds
B2 | binds
